Source: IntAct's records for PubMed 20485439

B1: Eukaryotic translation initiation factor 5 (Saccharomyces cerevisiae), P38431 (parent)
chain: MSINICRDNHDPFYRYKMPPIQAKVEGRGNGIKTAVLNVADISHALNRPAPYIVKYFGFELGAQTSISVDKDRYLVNGVHEPAKLQDVLDGFINKFVLCGSCKNPETEIIITKDNDLVRDCKACGKRTPMDLRHKLSSFILKNPPDSVSGSKKKKKAATASANVRGGGLSISDIAQGKSQNAPSDGTGSSTPQHHDEDEDELSRQIKAAASTLEDIEVKDDEWAVDMSEEAIRARAKELEVNSELTQLDEYGEWILEQAGEDKENLPSDVELYKKAAELDVLNDPKIGCVLAQCLFDEDIVNEIAEHNAFFTKILVTPEYEKNFMGGIERFLGLEHKDLIPLLPKILVQLYNNDIISEEEIMRFGTKSSKKFVPKEVSKKVRRAAKPFITWLETAESDDDEEDDE
B2: Eukaryotic translation initiation factor 5 (Saccharomyces cerevisiae), P38431 (parent)
chain: B1 chain
partner: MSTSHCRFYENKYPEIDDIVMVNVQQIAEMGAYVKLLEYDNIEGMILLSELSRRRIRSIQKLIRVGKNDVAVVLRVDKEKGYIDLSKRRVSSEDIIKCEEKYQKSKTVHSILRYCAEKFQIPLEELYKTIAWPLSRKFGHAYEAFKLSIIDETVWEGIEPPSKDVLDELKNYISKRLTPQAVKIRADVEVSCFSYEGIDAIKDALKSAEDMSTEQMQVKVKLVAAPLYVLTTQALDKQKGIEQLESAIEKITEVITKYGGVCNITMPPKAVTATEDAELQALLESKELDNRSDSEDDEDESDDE

Variants of: B1
Conditions: with if2g_yeast GCD11, P32481
Sequence of if2g_yeast GCD11, P32481 (P32481 whole entry): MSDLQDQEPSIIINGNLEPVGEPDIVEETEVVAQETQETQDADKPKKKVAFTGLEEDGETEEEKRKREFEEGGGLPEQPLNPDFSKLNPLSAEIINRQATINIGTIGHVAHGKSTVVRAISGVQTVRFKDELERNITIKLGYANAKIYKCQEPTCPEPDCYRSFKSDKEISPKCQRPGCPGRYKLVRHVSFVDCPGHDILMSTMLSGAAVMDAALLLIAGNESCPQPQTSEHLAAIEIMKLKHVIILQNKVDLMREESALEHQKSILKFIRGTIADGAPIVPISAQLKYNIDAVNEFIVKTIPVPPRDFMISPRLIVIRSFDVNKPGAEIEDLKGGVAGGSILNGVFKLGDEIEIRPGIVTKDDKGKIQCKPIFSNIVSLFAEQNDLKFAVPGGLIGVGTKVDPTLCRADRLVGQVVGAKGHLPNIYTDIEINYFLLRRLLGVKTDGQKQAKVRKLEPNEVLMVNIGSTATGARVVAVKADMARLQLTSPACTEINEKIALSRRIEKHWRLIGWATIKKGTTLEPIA

effect of a mutation on the interaction	Variant
decreasing interaction	MSINICRDNHDPFYRYKMPPIQAKVEGRGNGIKTAVLNVADISHALNRPAPYIVKYFGFELGAQTSISVDKDRYLVNGVHEPAKLQDVLDGFINKFVLCGSCKNPETEIIITKDNDLVRDCKACGKRTPMDLRHKLSSFILKNPPDSVSGSKKKKKAATASANVRGGGLSISDIAQGKSQNAPSDGTGSSTPQHHDEDEDELSRQIKAAASTLEDIEVKDDEWAVDMSEEAIRARAKELEVNSELTQLDEYGEWILEQAGEDKENLPSDVELYKKAAELDVLNDPKIGCVLAQCLFDEDIVNEIAEHNAFFTKILVTPEYEKNFMGGIERFLGLEHKDLIPLLPKILVQLYNNDIISEEEIMRFGTKSSKKFVPKEVSKKVRRAAKPFITFLETAESDDDEEDDE [W391F]

Variants of: B2
Conditions: with if2a_yeast SUI2, P20459

effect of a mutation on the interaction	Variant
decreasing interaction	MSINICRDNHDPFYRYKMPPIQAKVEGRGNGIKTAVLNVADISHALNRPAPYIVKYFGFELGAQTSISVDKDRYLVNGVHEPAKLQDVLDGFINKFVLCGSCKNPETEIIITKDNDLVRDCKACGKRTPMDLRHKLSSFILKNPPDSVSGSKKKKKAATASANVRGGGLSISDIAQGKSQNAPSDGTGSSTPQHHDEDEDELSRQIKAAASTLEDIEVKDDEWAVDMSEEAIRARAKELEVNSELTQLDEYGEWILEQAGEDKENLPSDVELYKKAAELDVLNDPKIGCVLAQCLFDEDIVNEIAEHNAFFTKILVTPEYEKNFMGGIERFLGLEHKDLIPLLPKILVQLYNNDIISEEEIMRFGTKSSKKFVPKEVSKKVRRAAKPFITFLETAESDDDEEDDE [W391F]
